Experimental data from patent US20100291097A1.

Legend:
[1] = biological target: Monomer-enriched preparation of the Aβ1-42 peptide (W. M. Keck Facility peptide); assay: ELISA, coated 2.2 µM; Ab 1:2 (start 0.5 µg/ml); mean of 3
[2] = biological target: Oligomer-enriched preparation of the Aβ1-42 peptide (W. M. Keck Facility peptide); assay: as above
[3] = biological target: Monomer-enriched preparation of the Aβ1-42 peptide (W. M. Keck Facility peptide); assay: ELISA, coated 2.2 µM; Ab 1:4 (start 0.5 µg/ml); mean of 3
[4] = biological target: Oligomer-enriched preparation of the Aβ1-42 peptide (W. M. Keck Facility peptide); assay: ELISA, coated 2.2 µM; Ab 1:8 (start 0.5 µg/ml); mean of 3
[5] = biological target: Monomer-enriched preparation of the Aβ1-42 peptide (W. M. Keck Facility peptide); assay: ELISA, coated 2.2 µM; Ab 1:16 (start 0.5 µg/ml); mean of 3
[6] = biological target: Monomer-enriched preparation of the Aβ1-42 peptide (W. M. Keck Facility peptide); assay: ELISA, coated 2.2 µM; Ab 1:32 (start 0.5 µg/ml); mean of 3
[7] = biological target: Oligomer-enriched preparation of the Aβ1-42 peptide (W. M. Keck Facility peptide); assay: as above
[8] = biological target: Oligomer-enriched preparation of the Aβ1-42 peptide (W. M. Keck Facility peptide); assay: ELISA, coated 2.2 µM; Ab 1:64 (start 0.5 µg/ml); mean of 3
[9] = biological target: Oligomer-enriched preparation of the Aβ1-42 peptide (W. M. Keck Facility peptide); assay: ELISA, coated 2.2 µM; Ab 1:128 (start 0.5 µg/ml); mean of 3

Sequence of Oligomer-enriched preparation of the Aβ1-42 peptide (W. M. Keck Facility peptide) (peptide, as listed by the source): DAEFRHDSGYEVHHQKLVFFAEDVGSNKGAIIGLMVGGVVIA
Sequence of Monomer-enriched preparation of the Aβ1-42 peptide (W. M. Keck Facility peptide) (peptide, as listed by the source): as above

6E10 control antibody gave an O.D. [1] of 3.59 O.D, an O.D. [2] of 3.59 O.D and an O.D. [3] of 3.27 O.D. The O.D. [4] was 2.98 O.D, the O.D. [5] was 1.98 O.D and the O.D. [6] was 1.36 O.D. For the same substance, the O.D. [7] was 1.32 O.D, the O.D. [8] was 0.92 O.D and the O.D. [9] was 0.63 O.D.
